Holding throughout (test): co-IP
Assay [1] concerns the target GFP-tagged VP1/2 regions 6 and 7 (deletion of regions 1–5) (pseudorabies virus (PRV)).
Assay [2] deals with GFP-tagged VP1/2 with a single deletion of regions 1–4 (C terminus intact) (pseudorabies virus (PRV)).
Assay [3] deals with GFP-tagged VP1/2 with the region 6^S deletion combined with deletion of regions 1–4 (pseudorabies virus (PRV)).
Assay [4] deals with GFP-tagged VP1/2[change]^S (deletion of region 6^S in the context of full-length VP1/2) (pseudorabies virus (PRV)).
The target in assay [5] is GFP-VP1/2[change] (pseudorabies virus (PRV)).

As for “p50/dynamitin (from UniProt Q13561 1-401) (natural protein)”, the fold decrease in binding against full-length VP1/2 was found to be 11 fold in assay [1], 9 fold in assay [2], 23 fold in assay [3] and 4 fold in assay [4].
In turn, “p150/glued dynactin subunit (from UniProt Q14203 1-1278) (natural protein)” yielded an efficiency of coimmunoprecipitation as percent of full-length GFP-VP1/2 in assay [5] of 79%. In addition, the fold decrease in binding against full-length VP1/2 in assay [2] and in assay [4] was 5 fold throughout.

The values are drawn from article PMC3808164.
